This assay has as its target Human PD-L1 (human, UniProt Q9NZQ7 19-290). Kind of assay: cell-based or functional assay.

Chain of Human PD-L1 (Q9NZQ7 19-290): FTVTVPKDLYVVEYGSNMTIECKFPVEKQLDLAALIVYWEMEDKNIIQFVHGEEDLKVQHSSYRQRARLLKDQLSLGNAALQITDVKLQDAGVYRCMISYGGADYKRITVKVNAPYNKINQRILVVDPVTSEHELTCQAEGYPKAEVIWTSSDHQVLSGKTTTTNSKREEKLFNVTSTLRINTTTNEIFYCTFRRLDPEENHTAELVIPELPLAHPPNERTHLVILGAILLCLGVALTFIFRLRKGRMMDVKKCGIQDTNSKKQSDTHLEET

B1: GEN1046 (bispecific antibody, human IgG1, kappa, lambda)
heavy 1: EVQLVESGGGLVQPGRSLRLSCTASGFSLNDYWMSWVRQAPGKGLEWVGYIDVGGSLYYAASVKGRFTISRDDSKSIAYLQMNSLKTEDTAVYYCARGGLTYGFDLWGQGTLVTVSSASTKGPSVFPLAPSSKSTSGGTAALGCLVKDYFPEPVTVSWNSGALTSGVHTFPAVLQSSGLYSLSSVVTVPSSSLGTQTYICNVNHKPSNTKVDKRVEPKSCDKTHTCPPCPAPEFEGGPSVFLFPPKPKDTLMISRTPEVTCVVVAVSHEDPEVKFNWYVDGVEVHNAKTKPREEQYNSTYRVVSVLTVLHQDWLNGKEYKCKVSNKALPAPIEKTISKAKGQPREPQVYTLPPSREEMTKNQVSLTCLVKGFYPSDIAVEWESNGQPENNYKTTPPVLDSDGSFFLYSRLTVDKSRWQQGNVFSCSVMHEALHNHYTQKSLSLSPG
light 1: DIVMTQSPSSLSASVGDRVTITCQASEDISSYLAWYQQKPGKAPKRLIYGASDLASGVPSRFSASGSGTDYTFTISSLQPEDIATYYCHYYATISGLGVAFGGGTKVEIKRTVAAPSVFIFPPSDEQLKSGTASVVCLLNNFYPREAKVQWKVDNALQSGNSQESVTEQDSKDSTYSLSSTLTLSKADYEKHKVYACEVTHQGLSSPVTKSFNRGEC
heavy 2: EVQLLEPGGGLVQPGGSLRLSCEASGSTFSTYAMSWVRQAPGKGLEWVSGFSGSGGFTFYADSVRGRFTISRDSSKNTLFLQMSSLRAEDTAVYYCAIPARGYNYGSFQHWGQGTLVTVSSASTKGPSVFPLAPSSKSTSGGTAALGCLVKDYFPEPVTVSWNSGALTSGVHTFPAVLQSSGLYSLSSVVTVPSSSLGTQTYICNVNHKPSNTKVDKRVEPKSCDKTHTCPPCPAPEFEGGPSVFLFPPKPKDTLMISRTPEVTCVVVAVSHEDPEVKFNWYVDGVEVHNAKTKPREEQYNSTYRVVSVLTVLHQDWLNGKEYKCKVSNKALPAPIEKTISKAKGQPREPQVYTLPPSREEMTKNQVSLTCLVKGFYPSDIAVEWESNGQPENNYKTTPPVLDSDGSFLLYSKLTVDKSRWQQGNVFSCSVMHEALHNHYTQKSLSLSPG
light 2: SYVLTQPPSVSVAPGQTARITCGGNNIGSKSVHWYQQKPGQAPVLVVYDDNDRPSGLPERFSGSNSGNTATLTISRVEAGDEADYYCQVWDSSSDHVVFGGGTKLTVLGQPKAAPSVTLFPPSSEELQANKATLVCLISDFYPGAVTVAWKADSSPVKAGVETTTPSKQSNNKYAASSYLSLTPEQWKSHRSYSCQVTHEGSTVEKTVAPTECS
On to B1, for which the “EC50 value [µg/ml], CD8+ T-cell expansion, donor 02” value is 0.00523 µg/mL; the “EC50 value [µg/ml], CD8+ T-cell expansion, donor 28” value was 0.00754 µg/mL; the “EC50 value [µg/ml], CD8+ T-cell expansion, donor 72” value amounted to 0.00506 µg/mL; the “EC50 value [µg/ml], CD8+ T-cell expansion, donor 89” value came to 0.00776 µg/mL. The “EC50 value [µg/ml], CD8+ T-cell expansion, mean of donors” value was found to be 0.0064 µg/mL.
